Substitutions are numbered along the chain they refer to.
T1: IFF05588
T1 chain: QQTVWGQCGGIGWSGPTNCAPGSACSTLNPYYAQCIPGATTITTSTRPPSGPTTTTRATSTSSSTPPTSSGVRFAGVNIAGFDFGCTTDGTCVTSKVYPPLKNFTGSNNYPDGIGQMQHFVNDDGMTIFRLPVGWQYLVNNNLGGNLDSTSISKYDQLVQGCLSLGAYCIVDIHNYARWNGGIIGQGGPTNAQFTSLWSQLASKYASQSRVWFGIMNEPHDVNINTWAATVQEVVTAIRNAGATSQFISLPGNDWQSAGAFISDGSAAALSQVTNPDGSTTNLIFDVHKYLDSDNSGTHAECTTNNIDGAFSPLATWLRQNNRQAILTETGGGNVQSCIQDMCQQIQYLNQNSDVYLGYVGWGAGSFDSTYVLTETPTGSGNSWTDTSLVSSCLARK

B1: IFF21350 (protein)
chain: NLNKPVIQPNFPGNGLASLGQGILDHLAPTQSTWDDWGAGWIPQDCKSLAQGAGLSPNDIIPFNIHYADCAQTWTFCRHKNSPLSEVNIIDLFGRLPVRMRQFVRHLVFIPGNKSAGSNGDNVLMVGPVDITVFAHEIGHSLDSHAFDPSYGVPFSTGNVWVSNYNLDSAVPDPYAQSSQQENFAQHTVISIYDKAVPGGIGTIQPNWQAIFHQYATLEGYIGDIIIPGGTCTHRLTDSPPVTMASKRRALGPKPKVALSPEVEEIEAIPMKNTITMTSFDEAGKPNGSYVINL
B2: IFF21334 (protein)
chain: ILDKPVIQPNFPGNGLASLGQGLMDNLSPTHSTWDDWGAGWIPQDCKSLVEGAGFSASDVIPFNIHYDDCAQTWTFCRHKDSPLSEITILDIFGRLPVRMRSFVRHLVFIPGNKSAGSSGDNVLMVGAVDVTVFAHEIGHSLDSHAFDPSYGVPFSTGNVWISNYNLDSAVTDPYAQTSQQENFAQETVVSLYDKVVPGGIGTIQPNWQAIYHQYATLEGYIGDVIIPGGTCTHRLTDSPPVQMSSSSKLRRALGPKPHVALSPEVEEIEAIPMKSSITMTSFDAAGKPNGTYVINL
B3: IFF21354 (protein)
chain: RLDKPVIKPPFPNGGLGSLGPDLMSSLKVASHTTDDWDKNHLPRDCKSLAQNAGFSPLDVSAFNIHYDDCKSQPWVFCRHKDSPLSKKDMTELFGRMPVRMRQFIRHIIALPGQRSAGSSGDNIQMNGDVEITVFIHETGHSLDSHAFDPKLGAPFSNGKAWTDAYNKDSAVTDDYAQTSQQENFAQETVVSVYDKNVKGGIGKIQPNAQAIRNAYTTLEKYIGNIIIPGGVCTHRLENSPSVPKADSARTRLVPKSEPVGEGLTRIEPIAMGPITPASY
B4: IFF21343 (protein)
chain: NLDKPVIQPNFPGNGLASLGQGLMDHLAPTHSTWDDWGAGWIPQDCKSMAQGAGFSANDIIPFNIHYDDCAQSWTFCRHKNSPLSELQILDIFGRLPVRMRSFVRHLVFVPGNKSAGSNGDNVLMVGAVDVTVFAHEIGHSLDSHAFDPSYGVPFSTGSVWTSNYNLDSAVPDPYAQTSQQENFAQETVVSLYDKVVPGGIGTIQPNWKAIFHQYATLQGYIGNVIIPGGTCTHRLTDSPPVTMSSAKLRRGLGPKPNVSLSPKVKEIESIPMESSITMTSFDEHGKPNGTYVVHLK
B5: IFF21332 (protein)
chain: ALNKPIINPQFPNGGLGSLGPGLMQHLQPAKRTWDKWGPGWIPEDCKNLAKSNNFSPFDITPFNIHYEDCPDSWVFCRHKDSPLSETAMIDMFGRMPVKMRSYIRHIIALPGTRSAGSAGDNIQMNGDCEITVFVHETGHSLDSHAFDPKYGAPFSNSKVWLDNYNQDSAVCDGYAQSSQQENLAQETVVGLFDKVVPGGVGTIQPNWKAIFHQYATVQGYLGDQILPGGTCSHRLTNSKPVPMGDSKKSRRGLGPAPDVSLSAHVTEIEPIAMGDSIVLTQYNDGGDAISKREVTLN
B6: IFF21379 (protein)
chain: QLDKPALTSNLDYLLEGNTNNLPRNGGPYWGKWADGLMPADCKSIAESQGLNPTDFEVWDIFYNDCQDGWSFCRHKDSSDSFETLVETFGRVPVRMRSWVRHILTIPGPNWAFNSNGNIALSGTTSSNLDVALHETAHSLDLLGAYGNGALSSMQEWLNAYNRDSHVPDEYARSNQVENVAQNTVVAIYDKVVPGGFPGIQPNYQRIQNQYTLVQAKAGNQILPGGTCDRHLENSDTVPMSGLSLAYKLDSEKSRGVWHDSAFKGTYMNIVKEFTPFNTQEFHH
B7: IFF21342 (protein)
chain: NLNKPVITPNFPGNGLASLGQGLMDHLAPTHSTWDDWGAGWIPADCKSMVQGAGFSPNDIIPFNIHYDDCAQSWTFCRHKNSPLSEIQILDIFGRLPVRMRQFVRHLVFVPGNKSAGSNGDNVLMVGDVDVTVFAHEIGHSLDSHAFDPSYGVPFSTGNVWVSNYNLDSAVPDPYAQSSQQENFAQETVVSLYDKVVPGGIGTIQPNWQAIFHQYATLEGYIGNVIIPGGTCTHRLTDSPPVTMSGSKKSRRALGPKPKVSLSPKVKEIEAIPMESSITMTSFDEHGRPNGTYVINL
B8: IFF21333 (protein)
chain: RLDKPIINPTFPGGGLDSLAQGLLDHLAPTQSTHDNWGAGYIPEDCKNLAKSNGFSPFDITPFNIHYSDCNDVWIFCRHKDSPLSQIDMIDLFGRMPVHMREYIRHVIALPGNKSAGSSGDNIQMNGAVGITVFVHETGHSLDSHGFDPKYGVPFSNSKTWLDNYNMDTAVCDSYAQSSQQENLAQETVVGLYDKVVPGGVGNIQPNWKAIFHQYATVQGYLGDILTPGGTCRHRLANSKPVPMGDSAKFRRDLGPAPDVSLSSDVIEIESIPMGSSIRITEFDEAGNPIGSKNVSLVM
B9: IFF21348 (protein)
chain: TLNKPVIQPNFPGGGLASLGPGLLNNLAITSSTSDVWGAGWIPADCKSLVQGAGLSPFDVIPFNIHLSDCSQTWTFCRHKNSPLSQTDIINLFARVPVRMRDFIRHFVFIPGATSAGSNGDNTLMVGNVDITVFLHEIGHSLDSHAFDPSYGVPFSTGNVWVSNYNLDSAVTDSYAQTSQQENFAQETVVSVYDKVVPGGIGTIQPNWQAIFHQYATLEGYIGNTIIPGGTCVNRLTDSQPVPMGNSAKFRRTMGPKPTVSLSPDVKEIKAIPMSDSITMTSFDEFGNVNGTYVIQL
B10: IFF21351 (protein)
chain: ALNKPVIQPNFPGNGLASLGQGIMQHLTPTQSTWDDWGAGWIPQDCKSIVQGAGFSPNDIIPFNIHYTDCGQTWTFCRHKNSPLSEINIIDIFGRLPVRMRQFVRHLVFVPGNKSAGSNGDNILMVGPVDVTVFIHEIGHSLDSHAFDPSYGVPFSTGNVWVSNYNLDSAVPDPYAQSSQQENFAQHTVVSIFDKVVPGGIGTIQPNWQAIFHQYATLEGYIGDTIIPGGTCTHRLTDSPPVTMASKRRGLGPKPKVALSPEVEEIESIPMKSTFKMTSFDEAGKPSGNYVINL
B11: IFF21341 (protein)
chain: B7 chain with Q21P, D25N, H26N, A44S, P240A, R288K, I295V, N296H
B12: IFF21360 (protein)
chain: RLDKPVIKPPFPNGGGLGSLGPDLMSSLPIAAHTTSDWDSDHLPRDCKRLAQSAGFSPLDVDAFNIRFDDCKQQPWVFCRHKDAPLSKSNMTELFGRLPVRMRQYIRHIIALPGQRSAGSAGDNIQMNGDCEITVFIHETGHSLDSHAFDPKHGVPFSNSPVWKDAYDKDTAVTDDYAQTSQQENFAQETVVAVYDKNVKGGGIGKIQPNAQAIRNAYTTLEKYIGDIIIPGGECTHRLENSPAVPKVDSARTRLVAKSEPVGEGLTRIEPIPMGPITLARY
B13: IFF21359 (protein)
chain: TLDKPVIKPPFPNGGLGSLGPDLMSSLPIAAHTTTDWDADHLPRDCKTLAQGAGFSPLDVSAFDIHYDDCKAQPWVFCRHKDSPLSKTDMTELFGRLPVRMRQFIRHIIALPGQRSAGSAGDNIQMNGDCEITVFIHETGHSLDSHAFDPKLGVPFSNGKAWTDAYHKDTAVTDDYGRTSQQENFAQETVVSVYDKNVEGGIGKIQPNAQAIRNAYTTLETYIGNIIIPGGECTHRLENSPSVPKADSARTRLVARAEPVGEGLTRIEPVPFGPILSVRY
B14: IFF21338 (protein)
chain: B7 chain with Q21P, D25N, H26N, A44S, S73T, E187Q, P240A, K265E, R288K, N296H

Biological target: T1, IFF05588

Protein | Relative late peak area (centered, scaled, averaged over 5, 10 and 15 min) | Relative late peak area (centered, scaled, averaged over doses, 24 h; sample diluted 10-fold) | Relative late peak area (reverse phase chromatography, 24 h) | Relative late peak area (centered, scaled, averaged over doses, 24 h; sample diluted 2-fold) | Relative late peak area (centered, scaled, averaged over doses, 24 h; sample diluted 1-fold)
B1 | 1.55 | 1.06 | 0.61 | – | –
B2 | 1.38 | 0.97 | 0.65 | – | –
B3 | 1.34 | 0.87 | 0.67 | – | –
B4 | 0.33 | – | – | 0.8 | –
B5 | 0.3 | – | 0.65 | 0.8 | –
B6 | -0.02 | – | 0.45 | 0.75 | –
B7 | 0.12 | – | – | 0.73 | –
B8 | 0.26 | – | 0.59 | 0.69 | –
B9 | 1.4 | 0.68 | – | – | –
B10 | -0.57 | – | – | – | 0.66
B11 | 1.03 | 0.62 | – | – | –
B12 | -0.58 | – | 0.66 | – | 0.62
B13 | 1.3 | 0.61 | 0.68 | – | –
B14 | 1.11 | 0.59 | 0.6 | – | –
